Reference: the DeepSol protein solubility set

Assay: soluble on expression in E. coli; label from the status in PepcDB or PDB records

Soluble on expression in E. coli, not soluble:
MGSDKIHHHHHHLPRRYEDIYPSLPLLNSDGLEHMSAASLMSVRYFQAEPDRMPEDVFAEHHILLNLKAEPHRVQNTRDGEMRDFTFSKNDIIVTPAGMRSGWRWFAQSDVIVVTLLPDRVQRFAETELGLLLDPQQLGDLPLFSDADLCAAGVMLRDALEADDMSSAVMFEALSRVFLVKLLQRYGKRRPEDVALSSRFTSAHYNRVLAFIRANLERTITLDDLASEAGMSPSHFSRLFKDTVGTPPMQYVMAYRIEQSLAMMTDQGRALGDIALACGFADQAHFSRSFKQLMGATPRQHRSSLS, MHTQYFPNRRPGRIQPLGIQQNTIYVYVKVKHVLEFYAIDIRLPYHWHQIAKLNISEMSYTFSTLSPDFRYIYVLFLRVAREMATFAVQRFDLENNGTADLFLLNAAEELYRVFEVPLDSVTLRCDSGGQLVLYDRSIVQGEIPFWTIRLEESTKTFRILKNSIPTAGDDTERNSALFTIAVDPVNRCFAKLMSPRTMLVYTEERKRWVEYHIPVEQSLQDIFGSDGFPVEEIRGIRETFGTHGHRMGALQTRLTFHDLNDVLVARCLHLHWNTTATVEFDHVNREIQVRLLAKFPLDDEVTRMFYLIASKEHHVFLGVYDTAIVHIKSPKLEEIVGWRMQKMLMRDGHKDEVLQISNYRQLLALALTKYADKDEDLAENLKNLGIEPPRKKLVVMEIELD, MGSDKIHHHHHHMELYRDPSQPIEVRVRDLLSRMTLEEKVAQLGSVWGYELIDERGKFSREKAKELLKNGIGQITRPGGSTNLEPQEAAELVNEIQRFLVEETRLGIPAMIHEECLTGYMGLGGTNFPQAIAMASTWDPDLIEKMTTAVREDMRKIGAHQGLAPVLDVARDPRWGRTEETFGESPYLVARMGVSYVKGLQGEDIKKGVVATVKHFAGYSASEGGKNWAPTNIPEREFKEVFLFPFEAAVKEANVLSVMNSYSEIDGVPCAANRKLLTDILRKDWGFEGIVVSDYFAVKVLEDYHRIARDKSEAARLALEAGIDVELPKTECYQYLKDLVEKGIISEALIDEAVTRVLRLKFMLGLFENPYVEVEKAKIESHRDIALEIARKSIILLKNDGILPLQKNKKVALIGPNAGEVRNLLGDYMYLAHIRALLDNIDDVFGNPQIPRENYERLKKSIEEHMKSIPSVLDAFKEEGIEFEYAKGCEVTGEDRSGFEEAIEIAKKSDVAIVVVGDKSGLTLDCTTGESRDMANLKLPGVQEELVLEVAKTGKPVVLVLITGRPYSLKNVVDKVNAILQVWLPGEAGGRAIVDIIYGKVNPSGKLPISFPRSAGQIPVFHYVKPSGGRSHWHGDYVDESTKPLFPFGHGLSYTKFEYSNLRIEPKEVPPAGEVVIKVDVENIGDRDGDEVVQLYIGREFASVTRPVKELKGFKRVSLKAKEKKTVVFRLHMDVLAYYNRDMKLVVEPGEFKVMVGSSSEDIRLTGSFSVVGEKREVVGMRKFFTEACEE, MANPIKIGIGGPVGAGKTQLIEKVVKRLSKEMSIGVITNDIYTKEDEKILVNSGVLPESRIIGVETGGCPHTAIREDASMNFAAIDELLERHDDIELIFIESGGDNLAATFSPELVDFSIYIIDVAQGEKIPRKGGQGMIKSDFFVINKTDLAPYVGASLEQMAEDTKVFRGKRPFTFTNLKTDEGLDEVIDWIERDTLLKGLS

Soluble on expression in E. coli, soluble:
MIQGVIQKIAGPAVIAKGMLGARMYDICKVGEEGLVGEIIRLDGDTAFVQVYEDTSGLKVGEPVVSTGLPLAVELGPGMLNGIYDGIQRPLERIREKTGIYITRGVVVHALDREKKWAWTPMVKPGDEVRGGMVLGTVPEFGFTHKILVPPDVRGRVKEVKPAGEYTVEKPVVVLEDGTNLKMYHTWPVRRPRPVQRKLDPNTPFLTGMRILDVLFPVAMGGTAAIPGPFGSGKTVTQQSLAKWSNADVVVYVACGDRGNEMTDVLVEFPELTDPKTGGPLMRRTVLIANTSNMPVAAREASIYVGVTIAEYFRDQGFSVALMADSTSRWAEALREISSRLEEMPAEEGYPPYLAARLAAFYERAGKVITLGGEEGAVTIVGAVSPPGGDMSEPVTQSTLRIVGAFWRLDASLAFRRHFPAINWNGSYSLFTSALDPWYRENVAEDYPELRDAISELLQREAGLQEIVQLVGPDALQDAERLVIEVGRIIREDFLQQNAYHEVDAYCSMKKAYGIMKMILAFYKEAEAAIKRGVSIDEILQLPVLERIGRARYVSEEEFPAYFEEAMKEIQGAFKALA, MVVKIKGKVFVFGDNVNTDEIIPARYLNTSDPQELAKYCMEDARPGFGRRDDIKGSIIVAGENFGCGSSREHAPVAIKAAGISCVIAKSFARIFFRNAINIGLPIVELKEADEFEEGDIAEVDLENGVVRNLTKGKEYRIRPYPEFLMKIMEAGGWLEYCLKEVGE, MGHHHHHHSHMNSAEQTVTWLITLGVLESPKKTISDPEGFLQASLKDGVVLCRLLERLLPGTIEKVYPEPRSESECLSNIREFLRGCGASLRLELLFPPSQPPQHLVTTILLSASTFDANDLYQGQNFNKVLSSLVTLNKVTADIGLGSDSVCARPSSHRIKSFDSLGSQSLHTR, MSLEALMNVQFFDHAHHKLKIRGLQSPVDVLTFEGREQLSTPFRYDIQFTSSDKAIAPESVLMQDGAFSLTAPPVQGMPVQTALRTLHGVITGFKHLSSSQDEARYEVRLEPRMALLTRSRQNAIYQNQTVPQIVEKILRERHQMRGQDFVFNLKSEYPAREQVMQYGEDDLTFVSRLLSEVGIWFRFATDARLKIEVIEFYDDQSGYERGLTLPLRHPSGLFDGETEAVWGLNTAYSVVEKSVSTRDYNYREATAEMTTGQHDATGGDNTTYGEAYHYADNFLQQGDKEAAESGAFYARIRHERYLNEQAILKGQSTSSLLMPGLEIKVQGDDAPAVFRKGVLITGVTTSAARDRSYELTFTAIPYSERYGYRPALIPRPVMAGTLPARVTSTVKNDIYAHIDKDGRYRVNLDFDRDTWKPGYESLWVRQSRPYAGDTYGLHLPLLAGTEVSIAFEEGNPDRPYIAGVKHDSAHTDHVTIQNYKRNVLRTPANNKIRLDDERGKEHIKVSTEYGGKSQLNLGHLVDAGKEQRGEGFELRTDLWGAVRAKKGIFISADAQDKAQGQVLEMQPALARLSAALVTMESLAASAQQAQALAADVSRQQTLLQQKIEQLQQEVLLGSAPKGVALVSGEDMQLSASDNLTLTAGKQLDIGVQKDFTLAAGKQLSLYSRAGAKLFSSHNDIDIQAQGGNLTTWSTQDTYISSGKKLVVTAQDELTLICGGGYIKIKSGNVEIGGPGKLLVKNAGIKKAGSGSMQGVMKSFEPESFDENFIISNPASGKPIANQKYEIHMPDGSVIAGITDAMGYSSLVASKASDDLKIILKKEGHHHHHH, MGKNLQALAQLYKNALLNDVLPFWENHSLDSEGGYFTCLDRQGKVYDTDKFIWLQNRQVWTFSMLCNQLEKRENWLKIARNGAKFLAQHGRDDEGNWYFALTRGGEPLVQPYNIFSDCFAAMAFSQYALASGEEWAKDVAMQAYNNVLRRKDNPKGKYTKTYPGTRPMKALAVPMILANLTLEMEWLLPQETLENVLAATVQEVMGDFLDQEQGLMYENVAPDGSHIDCFEGRLINPGHGIEAMWFIMDIARRKNDSKTINQAVDVVLNILNFAWDNEYGGLYYFMDAAGHPPQQLEWDQKLWWVHLESLVALAMGYRLTGRDACWAWYQKMHDYSWQHFADPEYGEWFGYLNRRGEVLLNLKGGKWKGCFHVPRAMYLCWQQFEALS, MSLDESKGFIEDSKLSVKTRMLYFSRDFRNNAPGSQSRVEETGLGFLGTFESGFTQGTVGFGVDAIGMLGLKLDSGKGRAGTGLFPTGADGRSQDDYSEGGGAVKMRISNTVLKFGDQFTALPVLATDDSRLLPEVAEGGLITSNEIDDLTVHAGHFTALNAQAQTYHDSLNLTEANVFGGTYAITDSLSTSVYYSRIEDHFRKWYGNINWALPISDKQGLVFDFNIYDTKSIGNNLTGAYVSKSDGTNELDNIAASLSAAYNVGAHTFTLAYQKVSGDGDYAYGVDGGGTVFLANSVARSDFNAEDEKSWQARYDLNFAEFGVPGLTFMTRYVSGTGATTRTTDSGKEWERDIDVKYVMQSGPAKDLSFRVRQATYRSGEGHHHHHH
